Reference: article PMC4820785 (Nature Communications, 2016)

Biological target: T1, Ssa1 (UniProt P10591 1-642)
T1 construct: also called a member of the Hsp70 family (Ssa1); Saa1
Test: ThT aggregation kinetics, global
Conditions: both partners purified

T1 sequence (P10591 whole entry): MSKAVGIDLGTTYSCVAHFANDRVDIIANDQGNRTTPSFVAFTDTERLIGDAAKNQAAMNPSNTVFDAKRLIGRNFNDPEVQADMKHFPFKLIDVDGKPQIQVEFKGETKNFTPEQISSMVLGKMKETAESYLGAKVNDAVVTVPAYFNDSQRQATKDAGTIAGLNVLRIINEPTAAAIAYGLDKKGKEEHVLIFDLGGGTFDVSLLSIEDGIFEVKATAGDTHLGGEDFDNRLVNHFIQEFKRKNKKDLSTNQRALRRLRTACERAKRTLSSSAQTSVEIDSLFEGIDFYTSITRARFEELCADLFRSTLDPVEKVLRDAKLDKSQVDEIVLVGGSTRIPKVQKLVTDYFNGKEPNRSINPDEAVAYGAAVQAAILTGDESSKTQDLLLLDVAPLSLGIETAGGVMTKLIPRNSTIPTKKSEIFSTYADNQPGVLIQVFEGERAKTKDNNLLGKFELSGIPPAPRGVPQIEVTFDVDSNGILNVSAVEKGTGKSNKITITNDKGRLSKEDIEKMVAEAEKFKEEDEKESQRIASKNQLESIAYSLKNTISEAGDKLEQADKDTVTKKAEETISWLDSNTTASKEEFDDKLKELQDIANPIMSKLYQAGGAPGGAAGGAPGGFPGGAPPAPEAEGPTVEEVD

B1: yeast prion protein Ure2p (natural protein, UniProt P23202 1-354, looked up)
chain: MMNNNGNQVSNLSNALRQVNIGNRNSNTTTDQSNINFEFSTGVNNNNNNNSSSNNNNVQNNNSGRNGSQNNDNENNIKNTLEQHRQQQQAFSDMSHVEYSRITKFFQEQPLEGYTLFSHRSAPNGFKVAIVLSELGFHYNTIFLDFNLGEHRAPEFVSVNPNARVPALIDHGMDNLSIWESGAILLHLVNKYYKETGNPLLWSDDLADQSQINAWLFFQTSGHAPMIGQALHFRYFHSQKIASAVERYTDEVRRVYGVVEMALAERREALVMELDTENAAAYSAGTTPMSQSRFFDYPVWLVGDKLTIADLAFVPWNNVVDRIGINIKIEFPEVYKWTKHMMRRPAVIKALRGE
notes: also called prion Ure2p
- Ka: 300000 M⁻¹
